Test results taken from US20150320832A1.

Target: Flightless I protein (human, endogenous in MET-1 and CC keratinocytes) (human) (UniProt Q13045)
Experiment: cell-based or functional assay

Chain of UniProt Q13045 (Q13045 whole entry): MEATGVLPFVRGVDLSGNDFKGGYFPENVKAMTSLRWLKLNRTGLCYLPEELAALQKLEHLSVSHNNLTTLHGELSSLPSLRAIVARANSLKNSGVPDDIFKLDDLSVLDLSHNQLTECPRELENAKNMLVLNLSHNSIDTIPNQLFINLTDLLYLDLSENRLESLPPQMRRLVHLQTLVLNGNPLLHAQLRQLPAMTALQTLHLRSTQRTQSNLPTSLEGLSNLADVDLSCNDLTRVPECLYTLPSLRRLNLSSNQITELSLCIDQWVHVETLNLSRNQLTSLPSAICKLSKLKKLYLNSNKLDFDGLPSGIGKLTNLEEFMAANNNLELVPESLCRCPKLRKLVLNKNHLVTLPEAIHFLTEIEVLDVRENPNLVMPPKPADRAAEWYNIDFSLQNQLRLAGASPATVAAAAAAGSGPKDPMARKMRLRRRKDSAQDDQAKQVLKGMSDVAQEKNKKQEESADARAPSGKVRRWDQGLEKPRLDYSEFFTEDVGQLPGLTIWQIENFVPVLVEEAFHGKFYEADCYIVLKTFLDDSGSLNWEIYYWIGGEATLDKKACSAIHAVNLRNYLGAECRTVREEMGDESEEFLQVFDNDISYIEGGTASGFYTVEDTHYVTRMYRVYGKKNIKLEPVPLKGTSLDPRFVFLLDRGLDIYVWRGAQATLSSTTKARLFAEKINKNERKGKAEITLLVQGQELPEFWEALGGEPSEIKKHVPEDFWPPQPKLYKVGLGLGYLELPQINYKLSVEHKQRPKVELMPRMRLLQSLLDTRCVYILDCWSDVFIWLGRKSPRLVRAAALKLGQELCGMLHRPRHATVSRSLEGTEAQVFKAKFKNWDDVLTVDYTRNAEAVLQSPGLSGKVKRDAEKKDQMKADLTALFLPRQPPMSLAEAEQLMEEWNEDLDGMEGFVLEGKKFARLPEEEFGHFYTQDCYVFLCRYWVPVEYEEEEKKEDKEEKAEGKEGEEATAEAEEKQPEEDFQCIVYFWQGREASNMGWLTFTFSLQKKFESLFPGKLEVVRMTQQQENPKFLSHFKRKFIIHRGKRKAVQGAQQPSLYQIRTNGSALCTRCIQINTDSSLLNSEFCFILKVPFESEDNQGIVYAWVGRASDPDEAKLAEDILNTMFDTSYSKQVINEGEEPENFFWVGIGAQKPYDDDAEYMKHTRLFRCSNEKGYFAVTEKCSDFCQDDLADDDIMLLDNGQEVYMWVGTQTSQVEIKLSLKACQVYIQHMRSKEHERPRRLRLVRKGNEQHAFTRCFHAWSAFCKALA

rFLAP-1 protein (LRRFIP1 (657-784) Protein-H00009208-Q01, Abnova Technologies) (from UniProt Q32MZ4 657-784)
decrease in cell invasion properties of RDEB-SCC (CC) cells, 3D organotypic model: 30%
decrease in cell invasion properties of sporadic SCC (MET-1) cells, 3D organotypic model: 60%
